From US20050059089A1 (priority 2003, published 2005)
No end group written: not given here.

B1: Porcine relaxin (ligand)
chain 1: QSTNDFIKACGRELVRLWVEICGSVSWGRTAL
chain 2: RMTLSEKCCQVGCIRKDIARLC
notes: The results paragraph prints only 'relaxin'
B2: Human INSL4 (ligand)
chain 1: AELRGCGPRFGKHLLSYCPMPEKTFTTTPGGWL
chain 2: SGRHRFDPFCCEVICDDGTSVKLCT
B3: relaxin3 A-chain (peptide, UniProt Q8WXF3 119-142, looked up)
peptide: DVLAGLSSSCCKWGCSKSEISSLC
modifications: ends and bridges not checked; also: oxidized
notes: domain: A-chain; Bought peptide; also called oxidized relaxin-3 A-chain peptide

What follows are binders tested against T1, human GPCR142 (human, UniProt Q8TDU9 1-374) (assay: competition binding with ^125I-relaxin3, membranes of COS-7 cells expressing GPCR142).
T1 construct: Expressed in COS-7, CHO, SK-N-MC or HEK293 cells
Description: The binding mixtures were incubated at room temperature for 1 h and then were filtered through 96-well GFC plates (Packard) and washed with ice-cold washing buffer: 50 mM Tris-HCl, pH 7.4. Fifty microliters of Microscint-40 were added to each well and the plates were counted in a Topcounter NTX (Packard).

T1 sequence (Q8TDU9 whole entry L329S): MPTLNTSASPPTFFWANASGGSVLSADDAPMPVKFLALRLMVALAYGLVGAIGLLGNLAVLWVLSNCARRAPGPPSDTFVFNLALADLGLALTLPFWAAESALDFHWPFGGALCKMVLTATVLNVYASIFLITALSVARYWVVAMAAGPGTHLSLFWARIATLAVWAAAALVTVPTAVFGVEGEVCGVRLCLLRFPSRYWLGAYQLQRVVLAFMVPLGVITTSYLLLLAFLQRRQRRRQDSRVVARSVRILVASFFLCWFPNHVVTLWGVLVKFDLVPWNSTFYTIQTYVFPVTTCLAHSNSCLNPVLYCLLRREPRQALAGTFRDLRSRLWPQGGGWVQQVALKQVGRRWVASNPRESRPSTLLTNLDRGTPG

Binding result, no binding:
B1
B2
B3
